The DeepSol protein solubility set

assay: soluble on expression in E. coli; label from the status in PepcDB or PDB records

Row | Sequence | soluble on expression in E. coli
1 | MIKQDVICYEKEDVVKRNNINITGGGEKTVLLAHGFGCDQNMWRFMLPELEKQFTVIVFDYVGSGQSDLESFSTKRYSSLEGYAKDVEEILVALDLVNVSIIGHSVSSIIAGIASTHVGDRISDITMICPSPCFMNFPPDYVGGFERDDLEELINLMDKNYIGWANYLAPLVMGASHSSELIGELSGSFCTTDPIVAKTFAKATFFSDYRSLLEDISTPALIFQSAKDSLASPEVGQYMAENIPNSQLELIQAEGHCLHMTDAGLITPLLIHFIQNNQTRA | soluble
2 | HYRRHSVESKLARAALDGMTAVMISDASLRIIMVNQEFENMMGYSTEQVKGSNAHSLILLPEDLEETLNIWNKLGRENVWEGEVRCRTQLNHVFTAIMRIQANLTKSGKISYYITSLVDISE | not soluble
3 | MFLAGAFIAVGSLYAQSSDAEWQAGVAKLKETIQTNPAQANEEAEQLIKGKNKKNVELLVAIGEVYLKAGKLPEAQEYAALAKKVNGKSALASVLEGDIAFEQKNAGLASQKYEEAIYFDPSCTEAYLRYADIYKSANAALAIEKLEQLKAQEPSNTAVDKKLAEIYYLKNDFSKAAEAYSRFAMGPTATEEDLVKYAFALFLNHDFEKSLEVANMGLKKNARHAAFNRLAMYNYTDLKRFDEAIKAADAFFTESDKADYSYLDYMYYGHLLEALKKYDEAVGQYEKAIQLDPTKTDLYKNISSAYEQKNDYKKAISAYQKYYTSLDKLEHHHHHH | soluble
4 | MKTAIVYYSQHHGNTKKLLDAIAIVDDVTLIDVTKHTAYDLNEFNLIGFASGIYFQKFSKKVLDFAKNNLPFNKKVFFIYTCGIKFPSYTVAIRAVVKEKNADIVGEYGCPGFDTFGPFKIVGGIRKGRPNENDIAKAVQFFRGILKLEHHHHHH | soluble
5 | MSQTNESFAALFEESIARSNMKAGEVISAEVVRIDHNFVVVNAGLKSEAFVPVEEFLNDQGELEVQVGDYVSVAIDALENGYGDTILSRDKAKRLASWLNLEKALESGEIISGTVTGKVKGGLTVMVNGIRAFLPGSLVDVRPIKDTTPYEGKTLEFKVIKLDRKRNNVVLSRRAVVEATLGEERQKLMETLKEGAIVNGIVKNITDYGAFVDLGGIDGLLHITDLAWRRVRHPSEVLSVGQEITAKILKFDQEKNRVSLGVKQLGEDPWVGISRRYPQGTRLFGKVTNLTDYGAFVEIEAGIEGLVHVSEMDWTNKNVAPSKVVQLGDEVEVMVLDIDEDKRRISLGMKQCKANPWDDFARNHKKGDKLAGQIKSITDFGVFIGLPGGIDGLVHLSDLSWQETGEEAVRKYKKGDEVEAVVLAIDVEKERISLGIKQLSGDPFNNFISANDKGSIVSVTIKTVDPKGAVVQLADDVEGYLRASEISSDRVEDARNVLKEGETMTAMIVNIDRKSRNINVSIKAKDSADQQEAMQKFAQDTGTAGTTNLGALLKAKLNETNQLEHHHHHH | soluble
6 | MGSDKIHHHHHHMGKPVSSPYYIGCSGWHYAHWVGAFYPPGLPSTGRLAFYAGRFHTVEINSSFYRLPSEKCLRAWHDGTPAGFLFALKASRFITHMKKLKDSEASLARLLGRAENLGEKLGPVLFQLPPHWRRNAKRLEGFLRVLPSGHRYAFEIRDPSWHHPEIYALLNAYNAAFCIFDIAGFQSPIQLTTDFAYIRLHGPSFAAYAGRYTTEALRAWAARIRTWGLRTVYVYFDNDQAAYATHNALELMGILGL | not soluble
7 | SNAMLFCDDSKKYLKEQNINLKNEFDKDDKRVEKFSLKHQNIYFDYSKNLINDYILKSLLESAEKSSLKDKIKQMFNGAKINSTEHRAVLHTALRDLSSTPLIVDGQDIRQEVTKEKQRVKELVEKVVSGRWRGFSGKKITDIVNIGIGGSDLGPKMVVRALQPYHCTDLKVHFVSNVDADSLLQALHVVDPETTLLIIASKSFSTEETLLNSISAREWLLDHYEDEKAVANHFVAISSKLDKVKEFGIDLEHCYKMWDWVGGRYSLWSSIGMSIAFAIGYDNFEKLLAGAYSVDKHFKETEFSKNIPVIMALLASYYSCTYNSQSQALLPYDERLCYFVDYLQQADMESNGKSVNIAGETVNYQTGVVLWGGVGTNGQHAFHQLLHQGNIFIPVDFIAIATSHHNYDNHQQALLANCFAQSQALMFGQSYDMVYNELLKSGLNETQAKELAAHKVIPGNRPSTTILLDELSPYSLGALIALYEHKIFVQGVLWDINSYDQWGVELGKKLGKNILKAMNDDSSDEYQNLDDSTRQLIAKVKNK | soluble
